Experimental data from the Human Domainome abundance scans (Beltran et al. 2025).
± gives the uncertainty stated by the source.

B1: Double-stranded RNA-specific adenosine deaminase, residues 296 to 358; numbered along this chain, P55265 (parent)
chain: MAEIKEKICDYLFNVSDSSALNLAKNIGLTKARDINAVLIDMERQGDVYRQGTTPPIWHLTDK

Variants of: B1
Experiment: abundance fitness (aPCA) (normalised: wild type 0, dead -1); higher = more abundant; growth selection in yeast, the domain comes from the species named
Settings: Homo sapiens

Row | Variant | abundance fitness
1 | MAEIKEKICDYLFNVSDSSALNLAKNIGLTKARDINAVLIDMERQGDVYRQGTTPPIAHLTDK | -0.426 ± 0.057
2 | MAEIKEKICDYLFNVSDSSALNLAKNIGLTKARDINAVLIDMERQGDVYRQGTTPPICHLTDK | -0.384 ± 0.095
3 | MAEIKEKICDYLFNVSDSSALNLAKNIGLTKARDINAVLIDMERQGDVYRQGTTPPIFHLTDK | -0.234 ± 0.11
4 | MAEIKEKICDYLFNVSDSSALNLAKNIGLTKARDINAVLIDMERQGDVYRQGTTPPIDHLTDK | -0.434 ± 0.075
5 | MAEIKEKICDYLFNVSDSSALNLAKNIGLTKARDINAVLIDMERQGDVYRQGTTPSIWHLTDK | -0.57 ± 0.094
6 | MAEIKEKICDYLFNVSDSSALNLAKNIGLTKARDINAVLIDMERQGDVYRQGTTPWIWHLTDK | -0.818 ± 0.24
7 | MAEIKEKICDYLFNVSDSSALNLAKNIGLTKARDINAVLIDMERQGDVYRQGTTPMIWHLTDK | -1.28 ± 0.34
8 | MAEIKEKICDYLFNVSDSSALNLAKNIGLTKARDINAVLIDMERQGDVYRQGTTPLIWHLTDK | -0.656 ± 0.12
9 | MAEIKEKICDYLFNVSDSSALNLAKNIGLTKARDINAVLIDMERQGDVYRQGTTPCIWHLTDK | -0.511 ± 0.35
10 | MAEIKEKICDYLFNVSDSSALNLAKNIGLTKARDINAVLIDMERQGDVYRQGTTPDIWHLTDK | -0.447 ± 0.19
11 | MAEIKEKICDYLFNVSDSSALNLAKNIGLTKARDINAVLIDMERQGDVYRQGTTPIIWHLTDK | -0.263 ± 0.15
12 | MAEIKEKICDYLFNVSDSSALNLAKNIGLTKARDINAVLIDMERQGDVYRQGTTPKIWHLTDK | -0.539 ± 0.18
13 | MAEIKEKICDYLFNVSDSSALNLAKNIGLTKARDINAVLIDMERQGDVYRQGTTPTIWHLTDK | -0.013 ± 0.091
14 | MAEIKEKICDYLFNVSDSSALNLAKNIGLTKARDINAVLIDMERQGDVYRQGTTPFIWHLTDK | -1.13 ± 0.29
15 | MAEIKEKICDYLFNVSDSSALNLAKNIGLTKARDINAVLIDMERQGDVYRQGTTPVIWHLTDK | -0.099 ± 0.1
16 | MAEIKEKICDYLFNVSDSSALNLAKNIGLTKARDINAVLIDMERQGDVYRQGTTPQIWHLTDK | -0.541 ± 0.1
17 | MAEIKEKICDYLFNVSDSSALNLAKNIGLTKARDINAVLIDMERQGDVYRQGTTPRIWHLTDK | -0.686 ± 0.15
18 | MAEIKEKICDYLFNVSDSSALNLAKNIGLTKARDINAVLIDMERQGDVYRQGTTPYIWHLTDK | -0.693 ± 0.41
19 | MAEIKEKICDYLFNVSDSSALNLAKNIGLTKARDINAVLIDMERQGDVYRQGTTPPWWHLTDK | -0.476 ± 0.073
20 | MAEIKEKICDYLFNVSDSSALNLAKNIGLTKARDINAVLIDMERQGDVYRQGTTPPCWHLTDK | -0.567 ± 0.08
21 | MAEIKEKICDYLFNVSDSSALNLAKNIGLTKARDINAVLIDMERQGDVYRQGTTPPAWHLTDK | -0.316 ± 0.051
22 | MAEIKEKICDYLFNVSDSSALNLAKNIGLTKARDINAVLIDMERQGDVYRQGTTPPMWHLTDK | -0.008 ± 0.062

Row | Variant | abundance fitness
23 | MAEIKEKICDYLFNVSDSSALNLAKNIGLTKARDINAVLIDMERQGDVYRQGTTPPNWHLTDK | -0.352 ± 0.081
24 | MAEIKEKICDYLFNVSDSSALNLAKNIGLTKARDINAVLIDMERQGDVYRQGTTPPPWHLTDK | -0.481 ± 0.079
25 | MAEIKEKICDYLFNVSDSSALNLAKNIGLTKARDINAVLIDMERQGDVYRQGTTPPEWHLTDK | -0.257 ± 0.075
26 | MAEIKEKICDYLFNVSDSSALNLAKNIGLTKARDINAVLIDMERQGDVYRQGTTPPVWHLTDK | -0.108 ± 0.048
27 | MAEIKEKICDYLFNVSDSSALNLAKNIGLTKARDINAVLIDMERQGDVYRQGTTPPRWHLTDK | -0.125 ± 0.047
28 | MAEIKEKICDYLFNVSDSSALNLAKNIGLTKARDINAVLIDMERQGDVYRQGTTPPFWHLTDK | -0.637 ± 0.064
29 | MAEIKEKICDYLFNVSDSSALNLAKNIGLTKARDINAVLIDMERQGDVYRQGTTPPKWHLTDK | -0.149 ± 0.065
30 | MAEIKEKICDYLFNVSDSSALNLAKNIGLTKARDINAVLIDMERQGDVYRQGTTPPQWHLTDK | -0.181 ± 0.068
31 | MAEIKEKICDYLFNVSDSSALNLAKNIGLTKARDINAVLIDMERQGDVYRQGTTPPTWHLTDK | -0.035 ± 0.059
32 | MAEIKEKICDYLFNVSDSSALNLAKNIGLTKARDINAVLIDMERQGDVYRQGTTPPHWHLTDK | -0.185 ± 0.11
33 | MAEIKEKICDYLFNVSDSSALNLAKNIGLTKARDINAVLIDMERQGDVYRQGTTPPDWHLTDK | -0.191 ± 0.087
34 | MAEIKEKICDYLFNVSDSSALNLAKNIGLTKARDINAVLIDMERQGDVYRQGTTPPGWHLTDK | -0.449 ± 0.048
35 | MAEIKEKICDYLFNVSDSSALNLAKNIGLTKARDINAVLIDMERQGDVYRQGTTPPLWHLTDK | -0.281 ± 0.05
36 | MAEIKEKICDYLFNVSDSSALNLAKNIGLTKARDINAVLIDMERQGDVYRQGTTPPYWHLTDK | -0.846 ± 0.11
37 | MAEIKEKICDYLFNVSDSSALNLAKNIGLTKARDINAVLIDMERQGDVYRQGTTPPSWHLTDK | -0.265 ± 0.057
38 | MAEIKEKICDYLFNVSDSSALNLAKNIGLTKARDINAVLIDMERQGDVYRQGTTTPIWHLTDK | -0.25 ± 0.059
39 | MAEIKEKICDYLFNVSDSSALNLAKNIGLTKARDINAVLIDMERQGDVYRQGTTRPIWHLTDK | -0.698 ± 0.075
40 | MAEIKEKICDYLFNVSDSSALNLAKNIGLTKARDINAVLIDMERQGDVYRQGTTSPIWHLTDK | -0.288 ± 0.057
41 | MAEIKEKICDYLFNVSDSSALNLAKNIGLTKARDINAVLIDMERQGDVYRQGTTWPIWHLTDK | -0.721 ± 0.087
42 | MAEIKEKICDYLFNVSDSSALNLAKNIGLTKARDINAVLIDMERQGDVYRQGTTYPIWHLTDK | -0.491 ± 0.11
43 | MAEIKEKICDYLFNVSDSSALNLAKNIGLTKARDINAVLIDMERQGDVYRQGTTVPIWHLTDK | -0.298 ± 0.051
